Results on 3 molecules are retold here after patent publication US8106168B2, “Metalloproteinase binding proteins” (Dyax Corp., priority 2005, dated 2012).

In test [1] the target is T1, MMP-14 (Homo sapiens, UniProt P50281). Put plainly: IC50 for MMP-14 inhibition by Fabs and IgGs. Type of test: biochemical. Conditions: Fab. How it is done:
MMP-14 binding proteins can be characterized in assays that measure their modulatory activity toward MMP-14 or fragments thereof in vitro or in vivo. For example, MMP-14 can be combined with a substrate such as Mca-Pro-Leu-Ala-Cys(Mob)-Trp-Ala-Arg-Dap(Dnp)-NH2 under assay conditions permitting cleavage by MMP-14. The assay is performed in the absence of the MMP-14 binding protein, and in the presence of increasing concentrations of the MMP-14 binding protein. The concentration of binding protein at which 50% of the MMP-14 activity (e.g., binding to the substrate) is inhibited is the IC50 value (Inhibitory Concentration 50%) or EC50 (Effective Concentration 50%) value for that binding protein.

Test [2] concerns the target T2, MMP-16 (Homo sapiens, UniProt P51512). Put plainly: Cross-reactivity of Fabs with MMP-16 (Example 9). Type of test: biochemical. More on the design: key: X: Do not inhibit MMP-16 or MMP-24 at [I] = 100 nM level; Y: partially inhibit at [I] = 100 nM level. The following applies: Fab, 100 nM final inhibitor concentration, 5 nM MMP-16. As for the experimental part:
(§1) For the studies summarized in Table 15, 1 μM of anti-MMP-14 Fab/IgG (100 nM final inhibitor concentration) were incubated with 5 nM of MMP-16 or 5 nM of MMP-24 for 30 minutes at 30° C., 10 μM of substrate was added, and the MMP-16 activity was measured.

The target of test [3] is T2, MMP-16. Kind of test: Cross-reactivity of Fabs and IgGs with MMP-16 (Example 8). The class given is biochemical. More on the design: key to MMP-16 (cross-reactivity, class symbol): X: Does not inhibit MMP-16 at [I] = 100 nM level. The following applies: 5 nM MMP16, 30 minutes at 30° C., 10 μM substrate. As for the experimental part: For the studies summarized in Tables 13 and 14, 100 nM anti-MMP-14 Fab/IgG were incubated with 5 nM MMP16 for 30 minutes at 30° C., 10 μM of substrate was added, and the MMP-16 activity was measured.

The target in a further test is MMP-24 (Homo sapiens, UniProt Q9Y5R2). Kind of test: Cross-reactivity of Fabs with MMP-24 (Example 9). Type of test: biochemical. More on the design: key to MMP-24 (cross-reactivity, class symbol): X: Do not inhibit MMP-16 or MMP-24 at [I] = 100 nM level; Y: partially inhibit at [I] = 100 nM level. Conditions: Fab, 100 nM final inhibitor concentration; 5 nM MMP-24. As for the experimental part:
as §1

Test [4] addresses T2, MMP-16. Put plainly: Cross-reactivity of anti-MMP-14 IgGs, enzymatic activity: MMP-16. The class given is biochemical. The following applies: 1 μM anti-MMP-14 IgG. How it is done: The cross-reactivity of exemplary anti-MMP-14 IgGs and Fabs with other human MMPs and TACE (TNF-alpha converting enzyme) was examined. MMP and TACE enzymatic activity was monitored in the absence and presence of 1 μM anti-MMP-14 IgG antibody. Inhibition (Y) of activity ranged from approximately 50-80% of the reaction rate observed in the absence of antibody. “X” indicates no inhibition was observed. Cross-reactivity was not determined for MMP-17 because protein activity could not be detected.
For the studies summarized in Table 12, six anti-MMP-14 IgGs were selected for cross-reactivity testings: M0043-G02, M0040-A06, M0037-D01, M037-C09, M0038-F01, M0033-H07.

Test [5] deals with T1, MMP-14. Kind of test: Selection and phage ELISA screening of anti-MMP-14 Fabs. Conditions: Fab from FAB310 phage display library. Type of test: binding. Summed up:
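Phage ELISA screened 95 clones from each of rounds 2 and 3 against biotinylated MMP-14 (1 μg/ml) captured on streptavidin, in TRIS/CaCl2/NaCl pH 7.5. The clones came from Fab library selections on biotinylated MMP-14, either free or TIMP-2-complexed (500 nM round 1, 100 nM later rounds). Elution used 2.5 μM TIMP-2 followed by TEA.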
(In general: An ELISA detects its analyte on a solid surface through an enzyme-linked reagent.)

Sequence of MMP-24 (Q9Y5R2 156-645): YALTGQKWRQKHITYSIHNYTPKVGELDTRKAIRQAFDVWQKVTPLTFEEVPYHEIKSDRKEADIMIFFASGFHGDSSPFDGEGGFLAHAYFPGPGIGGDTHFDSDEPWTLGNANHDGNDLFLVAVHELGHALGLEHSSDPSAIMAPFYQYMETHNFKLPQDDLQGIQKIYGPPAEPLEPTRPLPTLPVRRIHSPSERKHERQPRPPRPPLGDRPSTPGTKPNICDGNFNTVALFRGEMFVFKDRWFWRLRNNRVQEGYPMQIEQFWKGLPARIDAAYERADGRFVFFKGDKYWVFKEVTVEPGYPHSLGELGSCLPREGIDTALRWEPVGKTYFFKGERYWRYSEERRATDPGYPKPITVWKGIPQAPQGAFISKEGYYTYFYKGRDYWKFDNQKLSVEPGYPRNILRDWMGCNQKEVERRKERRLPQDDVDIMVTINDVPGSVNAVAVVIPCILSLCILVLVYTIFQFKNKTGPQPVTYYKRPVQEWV
T2 sequence (P51512 120-607): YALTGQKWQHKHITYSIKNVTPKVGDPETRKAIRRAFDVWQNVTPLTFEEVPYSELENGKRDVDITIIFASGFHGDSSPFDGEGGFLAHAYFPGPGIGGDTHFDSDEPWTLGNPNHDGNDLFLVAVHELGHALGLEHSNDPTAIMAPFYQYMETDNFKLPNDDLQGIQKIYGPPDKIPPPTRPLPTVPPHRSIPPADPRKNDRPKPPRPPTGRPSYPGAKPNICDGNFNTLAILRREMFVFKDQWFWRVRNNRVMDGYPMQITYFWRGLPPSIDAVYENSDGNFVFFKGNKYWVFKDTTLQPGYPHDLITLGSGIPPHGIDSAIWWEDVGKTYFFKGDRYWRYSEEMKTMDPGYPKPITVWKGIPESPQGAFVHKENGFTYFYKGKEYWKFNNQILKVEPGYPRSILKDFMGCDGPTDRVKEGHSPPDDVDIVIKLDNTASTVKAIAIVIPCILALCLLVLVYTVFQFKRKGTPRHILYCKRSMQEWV

B1: M0040-A06: human antibody (Fab, IgG) that binds and inhibits MMP-14; HC SEQ ID NO: 162, LC SEQ ID NO: 163 (antibody, V domains shown)
VH: EVQLLESGGGLVQPGGSLRLSCAASGFTFSYYGMYWVRQAPGKGLEWVSSISSSGGYTDYADSVKGRFTISRDNSKNTLYLQMNSLRAEDTAVYYCARRIKYYDIEGEGAFDIWGQGTMVTVSS
VL: QDIVMTQTPPSLPVNPGEPASISCRSSQSLLHRNGYNYLDWYLQKPGQSPQLLIHLGSYRASGVPDRFSGSGSGTDFTLKISRVEAEDVGVYYCMQPLQTPFTFGPGTKVDIK
modifications: Synthetically generated peptide
Turning to B1, in the test with MMP-14 [1], the “bind to and inhibit human MMP-14” value is “bind to and inhibit human MMP-14”. Besides, the “MMP-16 (cross-reactivity, class symbol)” value with MMP-16 [2], with MMP-16 [3] (Fab 100 nM) and in the test with MMP-16 [3] (IgG 100 nM) was “X” in each case. Further, the MMP-24 inhibition entry in the test with MMP-24 was “Y 65% inhibition”. Moreover, in the test with MMP-16 [4], the “Cross reactivity: inhibition of MMP-16 activity” value (“Cross reactivity: inhibition” below) is recorded as “Y (Inhibition (Y) of activity ranged from approximately 50-80% of the reaction rate observed in the absence of antibody)”. The “bind to human MMP-14” value with MMP-14 [5] is on record as “bind to human MMP-14”.

B2: M0038-F01: human antibody (Fab, IgG) that binds and inhibits MMP-14; HC SEQ ID NO: 156, LC SEQ ID NO: 157 (antibody, V domains shown)
VH: EVQLLESGGGLVQPGGSLRLSCAASGFTFSLYSMNWVRQAPGKGLEWVSSIYSSGGSTLYADSVKGRFTISRDNSKNTLYLQMNSLRAEDTAVYYCARGRAFDIWGQGTMVTVSS
VL: QDIQMTQSPSSLSAFVGDKVTITCRASQSVGTYLNWYQQKAGKAPELLIYATSNLRSGVPSRFSGSGSGTDFTLTINTLQPEDFATYYCQQSYSIPRFTFGPGTKVDIK
modifications: Synthetically generated peptide
Turning to B2, in the test with MMP-14 [1], the “bind to and inhibit human MMP-14” value was “bind to and inhibit human MMP-14”. For the same molecule, the “MMP-16 (cross-reactivity, class symbol)” value in the test with MMP-16 [2], with MMP-16 [3] (Fab 100 nM) and with MMP-16 [3] (IgG 100 nM) was “X” each time. For the same molecule, in the test with MMP-24, the “MMP-24 (cross-reactivity, class symbol)” value was “X”. Moreover, in the test with MMP-16 [4], the “Cross reactivity: inhibition” value is “Y (Inhibition (Y) of activity ranged from approximately 50-80% of the reaction rate observed in the absence of antibody)”. In addition, in the test with MMP-14 [5], the “bind to human MMP-14” value is “bind to human MMP-14”.

B3: M0043-G02: human antibody (Fab, IgG) that binds and inhibits MMP-14; HC SEQ ID NO: 166, LC SEQ ID NO: 167 (antibody, V domains shown)
VH: EVQLLESGGGLVQPGGSLRLSCAASGFTFSWYPMFWVRQAPGKGLEWVSGIYSSGGPTDYADSVKGRFTISRDNSKNTLYLQMNSLRAEDTAVYYCAKDTLGRYYDFWSGYSYGMDVWGQGTTVTVSS
VL: QDIQMTQSPGTLSLSPGERATLSCRASQSVSSSYLAWYQQKPGQAPRLLIYGASSRATGIPDRFSGSGSGTDFTLTISRLEPEDFAVYYCQSGVTFGGGTKVEIK
modifications: Synthetically generated peptide
B3: the “bind to and inhibit human MMP-14” value with MMP-14 [1] was “bind to and inhibit human MMP-14”. The “MMP-16 (cross-reactivity, class symbol)” value with MMP-16 [2] is “X”. The MMP-16 inhibition result with MMP-16 [3] (Fab 100 nM) is “Y 70% inhibition”; in the test with MMP-16 [3] (IgG 100 nM), “Y 94% inhibition”. In addition, in the test with MMP-24, the MMP-24 inhibition entry is reported as “Y 74% inhibition”. Further, the “Cross reactivity: inhibition” value with MMP-16 [4] is on record as “Y (Inhibition (Y) of activity ranged from approximately 50-80% of the reaction rate observed in the absence of antibody)”. For the same molecule, in the test with MMP-14 [5], the “bind to human MMP-14” value is on record as “bind to human MMP-14”.
